T1: Rhau55 (N-terminal fragment of RHAU/DHX36) (UniProt Q9H2U1 SEQ:3-55)
T1 sequence: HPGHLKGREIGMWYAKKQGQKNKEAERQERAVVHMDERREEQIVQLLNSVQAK

B1: T95_2T (structured_DNA)
DNA: TTGGGTGGGTGGGTGGGT
B2: TERC18 (ssRNA)
RNA: GGGUUGCGGAGGGUGGGC
B3: 12-nt TER (ssRNA)
RNA: UAGGGUUAGGGU
B4: 10-nt TER (ssRNA)
RNA: GGGUUAGGGU
B5: HT1 (structured_DNA)
DNA: TTGGGTTAGGGTTAGGGTTAGGGA
B6: 93del (structured_DNA)
DNA: GGGGTGGGAGGAGGGT
B7: CEB25 (structured_DNA)
DNA: AAGGGTGGGTGTAAGTGTGGGTGGGT
B8: Pu24T (structured_DNA)
DNA: TGAGGGTGGTGAGGGTGGGGA
B9: CEB1 (structured_DNA)
DNA: AGGGGGGAGGGAGGGTGG

What was measured:
[1] = biological target: T1, Rhau55 (N-terminal fragment of …); assay: EMSA; 70 mM KCl, 20 mM phosphate pH 6.8, room temperature; settings: tags: expressed in E. coli; parallel (propeller) G4
[2] = biological target: T1, Rhau55 (N-terminal fragment of …); assay: EMSA; RNA G4; 70 mM KCl, 20 mM phosphate pH 6.8; settings: tags: expressed in E. coli; parallel RNA G4
Procedure: (§1) The ratio between Rhau55 and Nucleic acids is indicated on top of each lane. DNA concentrations were fixed at 100 μM, in 70 mM KCL and 20 mM phosphate buffer (pH=6.8).

[3] = biological target: T1, Rhau55 (N-terminal fragment of …); assay: NMR imino protons, mixture with T95_2T; only T95_2T peaks affected; settings: tags: expressed in E. coli; non-parallel G4 form 1
[4] = biological target: T1, Rhau55 (N-terminal fragment of …); assay: EMSA; 70 mM KCl, 20 mM phosphate pH 6.8; settings: tags: expressed in E. coli
Procedure: as §1

| Binder | binding result [2] | binding result ([4]; parallel G4) | other results |
| --- | --- | --- | --- |
| B1 | – | – | Kd [1]: 0.989 µM |
| B2 | binds | – | – |
| B3 | binds | – | – |
| B4 | binds | – | – |
| B5 | – | – | binding result [3]: no binding |
| B6 | – | – | binding result ([4]; interlocked dimeric parallel G4): binds |
| B7 | – | binds | – |
| B8 | – | binds | – |
| B9 | – | binds | – |
